Test [1] has as its target N-terminal GST-tagged PEX38 full-length (T. brucei). The test is described as follows: AlphaScreen or HTRF. (In Alpha technology, singlet oxygen from a donor bead excites a nearby acceptor bead.)
The target of test [2] is C-terminal His6-tagged PEX19 full-length (T. brucei). Kind of test: AlphaScreen or HTRF.
The target of test [3] is TbPEX38 (65-134) (T. brucei). The test is described as follows: ITC. Background: Isothermal titration calorimetry measures the heat released or taken up as one component is titrated into another.

In test [1], “C-terminal His6-tagged PEX19 N50 (domain or fragment)” returned a fold weaker interaction with PEX38^FL than PEX19^FL (AlphaScreen signal) of 10 fold.
Consider GST-PEX3Δ1-44 (domain or fragment), for which the fold higher affinity for PEX19 than PEX38 in test [2] stood at 30 fold.
“TbPEX19 (1-50-SGGY) (domain or fragment)” came in with a Kd in test [3] of 3 µM.
In test [2], TbPEX38 (65-134) (domain or fragment) returned a concentration for half-maximal inhibition (IC50) of 0.446 µM.
Still for that read-out and setting: as for “untagged PEX38 full-length (natural protein)”, the figure is 0.95 µM.

Usually Kd stands for the concentration at which binding is half-saturated. Higher therefore signals weaker binding. What is called IC50 is the concentration needed to halve the response being measured. A high value points to a need for much substance.

These data come from publication doi:10.1101/2025.11.03.686288.
